Experimental findings from patent publication US20260001953A1 (TWIST BIOSCIENCE, published 2026) are described below.

Numbering of substitutions follows the chain as printed.

B1: SIGLEC-8-29 (antibody, human IgG1, kappa, V domains shown)
VH: EVQLLESGGGLVQPGGSLRLSCAASGFTFSRHAMTWVRQAPGKGLEWVSAISSSGDNTYYVDSVKGRYTISRDNSKNTLYLQMNSLRAEDTAVYYCARIHRNGHAFDIWGQGTLVTVSS
VL: DIQMTQSPSSLSASVGDRVTITCRASQSIHTYLNWYQQKPGKAPKLLIYGASTLRSGVPSRFSGSGSGTDFTLTISSLQPEDFATYYCQQSYSTPLLTFGGGTKVEIKR
notes: tested as expressed and purified mAb
B2: SIGLEC-8-13 (antibody, human IgG1, kappa, V domains shown)
VH: EVQLLESGGGLVQPGGSLRLSCAASGFTFSSYDMNWVRQAPGKGLEWVSAISGSGVGTYYADSVKGRFTISRDNSKNTLYLQMNSLRAEDTAVYYCSKDVRWSPGGMDVWGQGTLVTVSS
VL: DIQMTQSPSSLSASVGDRVTITCRASQSVSIYLNWYQQKPGKAPKLLIYATSNLHSGVPSRFSGSGSGTDFTLTISSLQPEDFATYYCQQSHSTPYTFGGGTKVEIKR
notes: as for B1
B3: SIGLEC-8-38 (antibody, human IgG1, kappa, V domains shown)
VH: EVQLLESGGGLVQPGGSLRLSCAASGFTFSPYAMSWVRQAPGKGLEWVSGIGGSGGSTYYADSVKGRFTISRDNSKNTLYLQMNSLRAEDTAVYYCARDYGGYYFDYWGQGTLVTVSS
VL: B2 VL with S28Y, V29I, I31N, N53T, H55E, S91G, H92Y, T94V, Y96W
notes: as for B1
B4: SIGLEC-8-23 (antibody, human IgG1, kappa, V domains shown)
VH: EVQLLESGGGLVQPGGSLRLSCAASGLTFSSYAMSWVRQAPGKGLEWVSAISGSGVGTYYADSVKGRFTISRDNSKNTLYLQMNSLRAEDTAVYYCAKHTSSSWYPLDYWGQGTLVTVSS
VL: B2 VL with A25S, V29I, S30T, I31T, T51A, H55Y, S93T, Y96L
notes: as for B1
B5: SIGLEC-8-47 (antibody, human IgG1, kappa, V domains shown)
VH: EVQLLESGGGLVQPGGSLRLSCAASGFTFSTHAMSWVRQAPGKGLEWVSTISGSGDITYYADSVKGRFTISRDNSKNTLYLQMNSLRAEDTAVYYCARQSRGGSLGMDVWGQGTLVTVSS
VL: B2 VL with S28T, V29I, I31R, T51A, H55Y, H92F, S93A
notes: as for B1
B6: SIGLEC-8-50 (antibody, human IgG1, kappa, V domains shown)
VH: EVQLLESGGGLVQPGGSLRLSCAASGFTLSNYAMTWVRQAPGKGLEWVSTVSGSGASTYYADSVKGRFTISRDNSKNTLYLQMNSLRAEDTAVYYCAREDSGKYLSLDYWGQGTLVTVSS
VL: DIQMTQSPSSLSASVGDRVTITCRASQSIGSYLNWYQQKPGKAPKLLIYSASSLQTGVPSRFSGSGSGTDFTLTISSLQPEDFATYYCQQTYNTPITFGGGTKVEIKR
notes: as for B1
B7: SIGLEC-8-16 (antibody, human IgG1, kappa, V domains shown)
VH: EVQLLESGGGLVQPGGSLRLSCAASGFTFSDYGMSWVRQAPGKGLEWVLAISGSGATTYYADSVKGRFTISRDNSKNTLYLQMDSLRAEDTAVYYCAREGGSTYYSLDYWGQGTLVTVSS
VL: B2 VL with A25T, V29I, S30G, I31S, H92Y, S93K
notes: as for B1
B8: SIGLEC-8-3 (antibody, human IgG1, kappa, V domains shown)
VH: EVQLLESGGGLVQPGGSLRLSCAASGFTFSTYDMTWVRQAPGKGLEWVSSIGGSGRSTYYADSVKGRFTISRDNSKNTLYLQMNSLRAEDTAVYYCARGSASAWFAFDYWGQGTLVTVSS
VL: B6 VL with G30A, S31R, S50G, S53D, T56S, T91S, N93R, P95S, I96Y
notes: as for B1
B9: SIGLEC-8-49 (antibody, human IgG1, kappa, V domains shown)
VH: EVQLLESGGGLVQPGGSLRLSCAASGFTFSTYAMHWVRQAPGKGLEWVSTISASGGSTYYADSVKGRFTISRDNSKNTLYLQMNSLRAEDTAVYYCAKSGGADYYYYGMDVWGQGTLVTVSS
VL: B6 VL with S31Y, S50G, A51T, T56S, T91S, N93S, I96L, T97N
notes: as for B1
B10: SIGLEC-8-6 (antibody, human IgG1, kappa, V domains shown)
VH: B6 VH with T28S, L29F, N31S, A33G, T35S, V51I, A56G, S57G, D100E, Y109H
VL: B6 VL with S28T, G30R, S50A, Q55H, T91S, N93T
notes: as for B1
B11: SIGLEC-8-39 (antibody, human IgG1, kappa, V domains shown)
VH: B7 VH with D31R, L49S, I51T, A56G, D84N, E99V, T103G, Y104W, S106P, L107N
VL: B6 VL with I29V, G30S, S31R, Y32F, S50G, S53T, T91S, N93T, I96H
notes: as for B1
B12: SIGLEC-8-55 (antibody, human IgG1, kappa, V domains shown)
VH: EVQLLESGGGLVQPGGSLRLSCAASGFTFDDYAMSWVRQAPGKGLEWVSYISGSGGSTYYADSVKGRFTISRDNSKNTLYLQMNSLRAEDTAVYYCAKYRRYDSGLGGFDYWGQGTLVTVSS
VL: B6 VL with Q27R, G30D, S31T, S50D, S53T, T56G, T91S, N93V, I96P
notes: tested as expressed and purified mAb; also called SIGLEC-55
B13: SIGLEC-8-25 (antibody, human IgG1, kappa, V domains shown)
VH: EVQLLESGGGLVQPGGSLRLSCAASGFTFSKYAMDWVRQAPGKGLEWVSDISGSGGTTYYADSVKGRFTISRDNSKNTLYLQMNSLRAEDTAVYYCVRAGLVGYDFDIWGQGTLVTVSS
VL: B6 VL with Q27E, G30S, S50G, S53I, T56G, T91S, N93S, T94F
notes: as for B1
B14: SIGLEC-8-9 (antibody, human IgG1, kappa, V domains shown)
VH: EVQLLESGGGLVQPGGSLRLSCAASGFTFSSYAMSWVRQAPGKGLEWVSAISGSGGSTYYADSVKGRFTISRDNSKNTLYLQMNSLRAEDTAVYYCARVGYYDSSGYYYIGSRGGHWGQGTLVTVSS
VL: B6 VL with A25T, S28T, G30S, S31T, S50D, S53D, T56S, T91N, N93I, I96N
notes: as for B1
B15: SIGLEC-8-2 (antibody, human IgG1, kappa, V domains shown)
VH: B5 VH with T31K, T50G, D56A, I57R
VL: B6 VL with S28R, G30S, S50G, S53I, S76N, Q90E, T91S, N93S, I96F
notes: as for B1
B16: SIGLEC-8-14 (antibody, human IgG1, kappa, V domains shown)
VH: EVQLLESGGGLVQPGGSLRLSCAASGFSFSNHAMTWVRQAPGKGLEWVSGISGSSGSTYYADSVKGRFTISRDNSKNTLYLQMNSLRAEDTAVYYCAREGRVAAYFDSWGQGTLVTVSS
VL: B6 VL with S28G, G30S, S31G, S50G, S53R, T56N, T91S, N93T
notes: as for B1
B17: SIGLEC-8-28 (antibody, human IgG1, kappa, V domains shown)
VH: EVQLLESGGGLVQPGGSLRLSCAASGSPFSNYAMSWVRQAPGKGLEWVSSISGGGASTYYADSVKGRFTISRDNSKNTLYLQMNSLRAEDTAVYYCAREKDNSWFGMDVWGQGTLVTVSS
VL: B6 VL with G30D, S31R, S50G, S53T, N93S
notes: as for B1
B18: SIGLEC-8-46 (antibody, human IgG1, kappa, V domains shown)
VH: EVQLLESGGGLVQPGGSLRLSCAASGLTFSRYAMSWVRQAPGKGLEWVSTVSGSGVSTYYADSVKGRFTISRDNSKNTLYLQMNSLRAEDTAVYYCARARGGSSRYYYGMDVWGQGTLVTVSS
VL: DIQMTQSPSSLSASVGDRVTITCRASQTIDKYLNWYQQKPGKAPKLLIYGASRLQNGVPSRFSGSGSGTDFTLTISSLQPEDFATYYCQQSYTTPTFGGGTKVEIKR
notes: as for B1
B19: SIGLEC-8-33 (antibody, human IgG1, kappa, V domains shown)
VH: EVQLLESGGGLVQPGGSLRLSCAASGFAFSDYAMSWVRQAPGKGLEWVSAITGSGDYTYYADSVKGRFTISRDNSKNTLYLQMNSLRAEDTAVYYCARDTGGMDVWGQGTLVTVSS
VL: DIQMTQSTSSLSASVGDRVTITCRASQSIHSYLNWYQQKPGKAPILIYAASSLERGVPSRFSGSGSGTDFTLTISSLQPEDFATYYCQQSYITPYSFGGGTKVEIKR
notes: as for B1
B20: SIGLEC-8-15 (antibody, human IgG1, kappa, V domains shown)
VH: EVQLLESGGGLVQPGGSLRLSCAASGFTFSTYTMNWVRQAPGKGLEWVSVISGSGDDTYYADSVKGRFTISRDNSKNTLYLQMNSLRAEDTAVYYCTRAGEQHHYYGMDVWGQGTLVTVSS
VL: B6 VL with S28T, G30S, S31T, Y32S, S50G, S53T, T56R, Q89R, T91S, N93S
notes: as for B1
B21: SIGLEC-8-51 (antibody, human IgG1, kappa, V domains shown)
VH: EVQLLESGGGLVQPGGSLRLSCAASGFTFPRYGMSWVRQAPGKGLEWVTATSGSGGTTYYADSVKGRFTISRDNSKNTLYLQMNSLRAEDTAVYYCARDESSGWYPKDYWGQGTLVTVSS
VL: B2 VL with I31R, Y32F, A50G, T51A, H55E, S56G, H92Y, S93T, Y96H
notes: as for B1

Sequence of Sialic acid-binding immunoglobulin-like lectin 8 (SIGLEC-8), antigen of the Carterra SPR studies (Q9NYZ4 17-363 limits assumed): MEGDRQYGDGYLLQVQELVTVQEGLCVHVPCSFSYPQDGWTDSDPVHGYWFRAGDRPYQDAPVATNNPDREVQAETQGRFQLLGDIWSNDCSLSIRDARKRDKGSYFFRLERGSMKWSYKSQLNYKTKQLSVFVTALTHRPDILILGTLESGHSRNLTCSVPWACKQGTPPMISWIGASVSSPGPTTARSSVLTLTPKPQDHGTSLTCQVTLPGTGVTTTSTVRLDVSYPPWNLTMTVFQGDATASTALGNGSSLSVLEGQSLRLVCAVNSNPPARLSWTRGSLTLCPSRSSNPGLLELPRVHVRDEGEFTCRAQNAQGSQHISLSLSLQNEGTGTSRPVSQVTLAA

For one test, the target named is T1, SIGLEC-8 transiently expressed on cells (UniProt Q9NYZ4 17-499, limits assumed).
T1 construct: whole, on cells; Two cassettes are described (P2A mVenus and direct mVenus fusion); also called the transient line; pTT5-SIGLEC-8 P2A mVenus
T1 sequence (Q9NYZ4 17-499 limits assumed): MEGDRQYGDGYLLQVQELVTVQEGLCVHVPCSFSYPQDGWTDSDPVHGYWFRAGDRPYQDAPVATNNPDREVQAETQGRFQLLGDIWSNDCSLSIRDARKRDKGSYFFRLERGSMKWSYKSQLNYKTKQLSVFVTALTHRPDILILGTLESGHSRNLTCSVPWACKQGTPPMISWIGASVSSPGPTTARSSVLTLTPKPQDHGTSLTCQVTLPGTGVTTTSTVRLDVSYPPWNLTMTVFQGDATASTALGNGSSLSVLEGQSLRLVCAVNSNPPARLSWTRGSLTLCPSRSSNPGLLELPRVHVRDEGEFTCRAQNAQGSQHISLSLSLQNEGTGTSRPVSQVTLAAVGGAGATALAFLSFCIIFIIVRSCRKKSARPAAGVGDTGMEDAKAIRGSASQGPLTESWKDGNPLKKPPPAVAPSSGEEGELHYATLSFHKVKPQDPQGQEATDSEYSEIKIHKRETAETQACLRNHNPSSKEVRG
As to the kind of experiment: cell binding titration, transient SIGLEC-8 line.
Regarding B1, a half-maximal response (EC50) required 355 nM.
Same read-out and setting: as for B2, the figure is 50.7 nM; as for B3, 10.6 nM.
Regarding B4, the EC50 is 0.855 nM. This EC50 lies about 12-fold lower than the previous one.
On the same count and under the same terms, as for B5, the figure is 1.88 nM; as for B6, 1.15 nM.
With B7, the 50% effective concentration (EC50) stood at 2.87 nM.
Same read-out and setting: as for B8, the figure is 6.46 nM.
B9 came in with an EC50 of 1.4 nM.
With B10, a half-maximal response (EC50) required 2.43 nM.
On the same count and under the same terms, as for B11, the figure is 4.47 nM; as for B12, 3.01 nM.
The same measure, in the same setting: as for B13, the figure is 7.63 nM.
Same read-out and setting: as for B14, the figure is 1590 nM; as for B15, 8.28 nM.
B16 came in with an EC50 of 20.8 nM. This EC50 is about 2.5-fold higher than that of the molecule before.
Still for that read-out and setting: as for B17, the figure is 1.02 nM; as for B18, 32.8 nM.
B19 showed an EC50 of 133 nM. Compared with the last molecule, the EC50 is about 4.1-fold higher.

Another test deals with Sialic acid-binding immunoglobulin-like lectin 8 (SIGLEC-8), antigen of the Carterra SPR studies (UniProt Q9NYZ4 17-363, limits assumed). As to the kind of experiment: Carterra SPR. In outline:
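Values are rate constants or dissociation constants for antibodies binding SIGLEC-8, measured by surface plasmon resonance on a Carterra instrument. The antibodies were drawn from synthetic libraries through four rounds of bead-based panning. Clones picked by clonal ELISA were expressed and purified prior to measurement.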
The molecule B1 came in with a Kd of 326 nM.
For B2, the binding result is reported as “no binding”.
For the molecule B3, binding was put at a Kd of 46200 nM.
Same read-out and setting: as for B4, the figure is 10.1 nM; as for B5, 32.7 nM; as for B6, 1.21 nM.
The same measure, in the same setting: as for B7, the figure is 2.02 nM; as for B8, 242 nM; as for B9, 88.8 nM.
Take B10: the affinity, expressed as Kd, was 4.68 nM.
The molecule B20 yielded a Kd of 2.57 nM.
The same measure, in the same setting: as for B11, the figure is 159 nM; as for B12, 1.61 nM.
Consider B13, for which binding was characterised by a dissociation constant (Kd) of 50.6 nM. Against the preceding molecule, the Kd is about 31-fold higher.
B14 gave a Kd of 8080 nM. This Kd lies about 160-fold higher than the previous one.
Same read-out and setting: as for B15, the figure is 160000 nM; as for B16, 65.4 nM; as for B17, 3.49 nM.
In the case of B21, the Kd is 10 nM.
Still for that read-out and setting: as for B18, the figure is 152000 nM; as for B19, 2.5 nM.
